The text below walks through data of patent US9926355 (NEW YORK UNIVERSITY, dated 2018).

Experiment [1] concerns the target T1, ligand-binding domain of human FGFR1c (D142 to R365) (human, UniProt P11362 142-365).
T1 construct: range 142-365
T1 sequence (looked up): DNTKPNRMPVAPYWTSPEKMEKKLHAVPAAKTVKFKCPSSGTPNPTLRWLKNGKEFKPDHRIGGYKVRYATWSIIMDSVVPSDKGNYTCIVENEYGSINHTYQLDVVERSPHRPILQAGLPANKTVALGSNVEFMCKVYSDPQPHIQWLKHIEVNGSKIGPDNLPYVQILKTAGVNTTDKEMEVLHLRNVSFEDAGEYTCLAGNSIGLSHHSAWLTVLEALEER
Description: SPR; FGF23 C-tail peptide immobilized, increasing concentrations of FGFR1c ligand-binding domain. From the text: (§1) FIGS. 10A-10D show overlays of SPR sensorgrams illustrating binding of FGFR1c to FGF2 (FIG. 10A), FGF19 (FIG. 10B), FGF21 (FIG. 10C), and FGF23 (FIG. 10D), and fitted saturation binding curves. Increasing concentrations of FGFR1c ligand-binding domain were passed over a biosensor chip containing immobilized FGF2, FGF19, FGF21, or FGF23. […] Increasing concentrations of αKlotho-FGFR1c complex were passed over a biosensor chip containing immobilized FGF23. […] FGF2^3C-tail was immobilized on a biosensor chip and increasing concentrations of FGFR1c ligand-binding domain were passed over the chip. Dissociation constants (K_Ds) given in FIGS. 10A-10E were derived from the saturation binding curves.
(§2) Example 2—Analysis of FGF-Heparin and FGF-FGFR-α/Klotho Interactions by Surface Plasmon Resonance Spectroscopy Surface plasmon resonance (SPR) experiments were performed on a Biacore 2000 instrument (Biacore AB), and the interactions were studied at 25° C. in HBS-EP buffer (10 mM HEPES-NaOH, pH 7.4, 150 mM NaCl, 3 mM EDTA, 0.005% (v/v) polysorbate 20). To study endocrine FGF-heparin interactions, a heparin chip was prepared by immobilizing biotinylated heparin (Sigma-Aldrich) on flow channels of a research-grade streptavidin chip (Biacore AB). The coupling density was ~5 fmol mm^-2 of flow channel. […]

In experiment [2] the target is T1, ligand-binding domain of human FGFR1c …. Description: SPR; FGF23 immobilized, increasing concentrations of FGFR1c ligand-binding domain; KD only in the figure.
Excerpt: as §1, §2
Background: In SPR one partner is held on a chip, and binding of the other changes the refractive index at the surface.

Experiment [3] shares this target. Description: SPR; immobilized FGF21, FGFR1c ligand-binding domain in solution.
Excerpt: as §1, §2

B1: N-terminally hexahistidine-tagged C-terminal tail peptide of FGF23 (S180 to I251) (peptide)
peptide: SAEDDSERDPLNVLKPRARMTPAPASCSQELPSAEDNSPMASDPLGVVRGGRVNTHAGGTGPEGCRPFAKFI
notes: also called FGF23^C-tail; not shown: N-terminal hexahistidine tag
With B1, the binding result in experiment [1] is reported as “no binding”.

B2: N-terminally hexahistidine-tagged, mature form of human FGF23 (Y25 to I251), R176Q/R179Q (ligand)
chain: YPNASPLLGSSWGGLIHLYTATARNSYHLQIHKNGHVDGAPHQTIYSALMIRSEDAGFVVITGVMSRRYLCMDFRGNIFGSHYFDPENCRFQHQTLENGYDVYHSPQYHFLVSLGRAKRAFLPGMNPPPYSQFLSRRNEIPLIHFNTPIPRQHTQSAEDDSERDPLNVLKPRARMTPAPASCSQELPSAEDNSPMASDPLGVVRGGRVNTHAGGTGPEGCRPFAKFI
notes: also called native FGF23; wild-type FGF23; not shown: N-terminal hexahistidine tag
Turning to B2, the binding result in experiment [2] is reported as “binds”.

B3: N-terminally hexahistidine-tagged, mature form of human FGF21 (H29 to S209) (ligand)
chain: HPIPDSSPLLQFGGQVRQRYLYTDDAQQTEAHLEIREDGTVGGAADQSPESLLQLKALKPGVIQILGVKTSRFLCQRPDGALYGSLHFDPEACSFRELLLEDGYNVYQSEAHGLPLHLPGNKSPHRDPAPRGPARFLPLPGLPPALPEPPGILAPQPPDVGSSDPLSMVGPSQGRSPSYAS
notes: also called native FGF21; not shown: N-terminal hexahistidine tag
On to B3, for which the binding result in experiment [3] is “binds”.
